We go through 2 molecules from patent US20170174769A1.

Experiment [1] has as its target mouse KLB and mouse FGFR1c co-expressed on HEK293/mKLB/mFGFR1c/SRE-Luc cells (mouse). The experiment can be described thus: FACS on stable HEK293 cells, 33 nM.
Experiment [2] has the same target. Description: FACS on stable HEK293 cells, 965 nM.
The target of experiment [3] is extracellular domain of human FGFR1c expressed with C-terminal V5 and hexahistidine tags (human) (UniProt P11362). Description: SPR, mAb captured, 25 C. In general terms: Surface plasmon resonance follows binding to a sensor surface in real time, without labels.
Experiment [4] deals with extracellular domain of human KLB expressed with C-terminal HA and hexahistidine tags (human) (UniProt Q86Z14). The experiment can be described thus: SPR, mAb captured, 25 C.
Experiment [5] deals with extracellular domain of human FGFR1c expressed with C-terminal V5 and hexahistidine tags (human) (UniProt P11362). Description: SPR, mAb captured, 37 C.
Experiment [6] deals with extracellular domain of human KLB expressed with C-terminal HA and hexahistidine tags (human) (UniProt Q86Z14). Description: SPR, mAb captured, 37 C.
For experiment [7], the target named is full-length human FGFR1c on HEK293/hFGFR1c/SRE-luc cells (human) (UniProt P11362). Description: FACS on stable HEK293 cells.
The target in experiment [8] is full-length human KLB on HEK293/hKLB/SRE-luc cells (human) (UniProt Q86Z14). Description: FACS on stable HEK293 cells.
Experiment [9] concerns the target human KLB and human FGFR1c co-expressed on HEK293/hKLB/hFGFR1c/SRE-luc cells (human) (UniProt Q86Z14). Description: FACS on stable HEK293 cells.

Sequence of extracellular domain of human FGFR1c expressed with C-terminal V5 and hexahistidine tags (human) (P11362 other isoform, or with tags, fused parts or gaps limits assumed): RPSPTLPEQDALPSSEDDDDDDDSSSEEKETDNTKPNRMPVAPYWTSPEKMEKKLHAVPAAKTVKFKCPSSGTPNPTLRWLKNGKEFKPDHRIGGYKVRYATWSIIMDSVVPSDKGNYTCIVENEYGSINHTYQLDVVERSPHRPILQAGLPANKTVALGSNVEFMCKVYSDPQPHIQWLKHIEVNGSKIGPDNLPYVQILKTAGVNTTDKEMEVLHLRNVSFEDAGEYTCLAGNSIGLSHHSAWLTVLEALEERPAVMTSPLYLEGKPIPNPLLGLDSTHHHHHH
Sequence of extracellular domain of human KLB expressed with C-terminal HA and hexahistidine tags (human) (Q86Z14 1-996 limits assumed): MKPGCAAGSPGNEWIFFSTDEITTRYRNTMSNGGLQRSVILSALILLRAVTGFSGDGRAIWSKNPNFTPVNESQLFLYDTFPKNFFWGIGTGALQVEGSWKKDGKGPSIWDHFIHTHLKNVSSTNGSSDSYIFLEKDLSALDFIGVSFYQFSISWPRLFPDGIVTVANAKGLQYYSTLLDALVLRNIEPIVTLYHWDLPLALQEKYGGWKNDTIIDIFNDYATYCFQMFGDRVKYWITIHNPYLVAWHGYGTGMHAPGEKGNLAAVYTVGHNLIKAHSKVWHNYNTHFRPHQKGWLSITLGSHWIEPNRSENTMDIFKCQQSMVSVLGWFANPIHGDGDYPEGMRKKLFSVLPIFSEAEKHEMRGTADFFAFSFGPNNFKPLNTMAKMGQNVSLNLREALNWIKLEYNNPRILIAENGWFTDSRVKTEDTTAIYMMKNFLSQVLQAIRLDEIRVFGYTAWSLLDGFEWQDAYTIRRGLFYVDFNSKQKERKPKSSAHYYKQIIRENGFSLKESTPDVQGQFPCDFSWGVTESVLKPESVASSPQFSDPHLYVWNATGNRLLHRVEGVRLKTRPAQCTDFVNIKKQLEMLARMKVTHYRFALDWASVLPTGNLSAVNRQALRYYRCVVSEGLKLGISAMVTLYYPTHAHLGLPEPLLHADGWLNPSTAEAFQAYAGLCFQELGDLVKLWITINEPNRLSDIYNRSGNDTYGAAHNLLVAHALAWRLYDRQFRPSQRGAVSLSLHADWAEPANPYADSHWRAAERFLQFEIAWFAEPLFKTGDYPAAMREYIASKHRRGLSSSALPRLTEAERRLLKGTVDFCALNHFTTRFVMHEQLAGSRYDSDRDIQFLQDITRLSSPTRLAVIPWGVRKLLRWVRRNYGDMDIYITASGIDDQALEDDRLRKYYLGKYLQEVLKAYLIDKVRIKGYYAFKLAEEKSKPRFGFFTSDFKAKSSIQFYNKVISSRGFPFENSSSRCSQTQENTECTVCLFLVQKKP
Sequence of human KLB and human FGFR1c co-expressed on HEK293/hKLB/hFGFR1c/SRE-luc cells (human) (Q86Z14 whole entry, chain 1 of 2): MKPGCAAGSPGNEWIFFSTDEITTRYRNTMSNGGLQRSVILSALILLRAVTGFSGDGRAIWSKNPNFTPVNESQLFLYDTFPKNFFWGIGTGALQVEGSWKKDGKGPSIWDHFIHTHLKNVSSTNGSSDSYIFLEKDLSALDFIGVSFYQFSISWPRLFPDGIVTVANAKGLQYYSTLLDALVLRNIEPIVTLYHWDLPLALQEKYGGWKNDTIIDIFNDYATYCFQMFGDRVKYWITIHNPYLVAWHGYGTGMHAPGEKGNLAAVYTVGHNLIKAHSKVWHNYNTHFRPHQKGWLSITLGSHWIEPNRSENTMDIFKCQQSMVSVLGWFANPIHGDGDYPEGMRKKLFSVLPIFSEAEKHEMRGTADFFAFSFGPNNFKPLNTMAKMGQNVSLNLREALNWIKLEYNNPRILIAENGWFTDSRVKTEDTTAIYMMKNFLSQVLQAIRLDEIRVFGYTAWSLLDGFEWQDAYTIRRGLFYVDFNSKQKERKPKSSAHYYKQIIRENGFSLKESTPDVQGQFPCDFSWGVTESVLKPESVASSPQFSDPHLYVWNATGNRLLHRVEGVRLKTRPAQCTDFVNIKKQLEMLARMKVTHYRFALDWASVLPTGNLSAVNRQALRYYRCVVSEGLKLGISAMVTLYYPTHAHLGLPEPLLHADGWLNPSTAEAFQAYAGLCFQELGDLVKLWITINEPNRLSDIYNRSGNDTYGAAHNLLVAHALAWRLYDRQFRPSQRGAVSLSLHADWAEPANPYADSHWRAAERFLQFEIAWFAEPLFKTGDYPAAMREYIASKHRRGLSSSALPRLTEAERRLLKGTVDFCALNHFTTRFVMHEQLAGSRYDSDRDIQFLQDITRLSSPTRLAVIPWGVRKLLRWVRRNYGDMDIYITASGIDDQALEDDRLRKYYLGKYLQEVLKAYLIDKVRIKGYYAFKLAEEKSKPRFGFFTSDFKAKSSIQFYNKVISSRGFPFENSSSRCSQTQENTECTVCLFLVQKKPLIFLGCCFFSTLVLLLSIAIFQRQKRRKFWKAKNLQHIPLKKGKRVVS
Sequence of human KLB and human FGFR1c co-expressed on HEK293/hKLB/hFGFR1c/SRE-luc cells (human) (chain, as listed by the source limits assumed, chain 2 of 2): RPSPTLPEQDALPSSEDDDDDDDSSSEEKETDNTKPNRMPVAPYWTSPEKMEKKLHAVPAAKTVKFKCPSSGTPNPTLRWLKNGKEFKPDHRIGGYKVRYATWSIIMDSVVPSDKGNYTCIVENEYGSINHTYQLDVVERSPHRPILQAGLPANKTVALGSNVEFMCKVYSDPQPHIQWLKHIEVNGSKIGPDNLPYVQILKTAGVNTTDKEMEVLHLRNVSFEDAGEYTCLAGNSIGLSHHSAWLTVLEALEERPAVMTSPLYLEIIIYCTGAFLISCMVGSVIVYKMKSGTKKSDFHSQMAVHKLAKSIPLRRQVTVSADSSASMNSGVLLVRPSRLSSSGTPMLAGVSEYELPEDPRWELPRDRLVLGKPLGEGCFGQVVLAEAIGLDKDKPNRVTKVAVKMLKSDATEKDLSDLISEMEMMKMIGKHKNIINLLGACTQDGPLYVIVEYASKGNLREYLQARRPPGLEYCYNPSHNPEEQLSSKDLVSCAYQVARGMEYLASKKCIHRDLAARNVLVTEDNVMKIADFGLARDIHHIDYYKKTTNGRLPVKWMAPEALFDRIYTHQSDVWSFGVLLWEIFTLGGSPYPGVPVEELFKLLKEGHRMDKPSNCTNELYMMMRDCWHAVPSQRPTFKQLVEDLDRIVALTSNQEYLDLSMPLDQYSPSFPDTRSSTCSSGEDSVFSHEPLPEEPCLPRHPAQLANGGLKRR
Sequence of full-length human KLB on HEK293/hKLB/SRE-luc cells (human) (Q86Z14 whole entry): as the sequence (Q86Z14 whole entry, chain 1 of 2) above
Sequence of full-length human FGFR1c on HEK293/hFGFR1c/SRE-luc cells (human) (P11362 other isoform, or with tags, fused parts or gaps limits assumed): as the sequence (chain, as listed by the source limits assumed, chain 2 of 2) above

B1: H1H8900P (antibody, V domains shown)
VH: QVQLVESGGGVVQPGRSLRLSCVASGFTFSSYGMHWVRQAPGKGLEWVAVISFDGSNKYYADSVKGRFTISRDNSKNTLYLQMNSLRPADTAVYYCAKDRSNYYYFGMDVWGQGTTVTVSS
VL: DIVMTQTPLSLPVTPGEPASISCRSSQSLLDSDDGNTYLDWYLQKPGQSPQLLIYTLSYRASGVPDRFSGSGSGTDFTLKISRVEAEDVGVYYCMQRIEFPLTFGGGTKVEIK
Take B1: the MFI Ratio to unstained cells in experiment [1] came out at 1 fold; in [2], 2 fold.

B2: Comparator 3 (antibody, from another filing, V domains shown)
VH: EVQLVQSGAEVKKPGASVKVSCKVSGYTFTDYYMHWVQQAPGKGLEWMGLVDPEDGETIYAEKFQGRVTITADTSTDTAYMELSSLRSEDTAVYYCARDDYMDVWGKGTLVTVSS
VL: ETTLTQSPDTLSLSPGEGATLSCRASQSVSGSALAWYQQKPGQAPRLLIYDASSRATGVPDRFSGSGSGADFSLTISRLEPEDFAVYSCQQYGSSPLTFGPGTKVDVKR
Consider B2, for which, in [3], the 180 nM hFGFR1c-V5-6His Bind (RU) stood at 16.4 RU; the Kd (as a rule, the equilibrium constant for the complex coming apart) turned out to be 4.12 nM; the koff (usually a measure of how fast the partners let go of each other) came out at 0.0129 s⁻¹; the kon (commonly the rate constant with which the complex forms) worked out at 3.13e+06 M⁻¹ s⁻¹. Moreover, in experiment [3], the t1/2 turned out to be 0.9 min. Besides, in experiment [4], the 20 nM hKLB-HA-6His Bind (RU) was -1.1 RU. In addition, in experiment [5], the 180 nM hFGFR1c-V5-6His Bind (RU) was found to be 88.8 RU, the Kd turned out to be 8.76 nM, the koff was determined as 0.0208 s⁻¹ and the kon was determined as 2.37e+06 M⁻¹ s⁻¹. For the same molecule, the t1/2 in experiment [5] is 0.6 min. In experiment [6], this molecule gave a 20 nM hKLB-HA-6His Bind (RU) of -1 RU. Also, the binding ratio to unstained cells in experiment [7] was 27 fold. Also, the binding ratio to unstained cells in [8] came out at 2 fold. The binding ratio to unstained cells in [9] was 33 fold.
